Measured values published in patent publication US20040006777.

Molecular target: Raytide (synthetic peptide substrate)

B1: T7 tagged Lyp1 (protein)
chain: MDQREILQKFLDEAQSKKITKEEFANEFLKLKRQSTKYKADKTYPTTVAENAKNIKKNRYKDILPYDYSRVELSLITSDEDSSYINANFIKGVYGPKAYIATQGPLSTTLLDFWRMIWEYSVLIIVMACMEYEMGKKKCERYWAEPGEMQLEFGPFSVSCEAEKRKSDYIIRTLKVKFNSETRTIYQFHYKNWPDHDVPSSIDPILELIWDVRCYQEDDSVPICIHCSAGCGRTGVICAIVDYTWMLLKDGIIPENFSVFSLIREMRTQRPSLVQTQEQYELVYNAVLELFKRQMDVIRDKHSGTESQAKHCIPEKNHTLQADSYSPNLPKSTTKAAKMMNQQRTKMEIKESSSFDFRTSEISAKEELVLHPAKSSTSFDFLELNYSFDKNADTTMKWQTKAFPIVGEPLQKHQSLDLGSLLFEGCSNSKPVNAAGRYFNSKVPITRTKSTPFELIQQRETKEVDSKENFSYLESQPHDSCFVEMQAQKVMHVSSAELNYSLPYDSKHQIRNASNVKHHDSSALGVYSYIPLVENPYFSSWPPSGTSSKMSLDLPEKQDGTVFPSSLLPTSSTSLFSYYNSHSSLSLNSPTNISSLLNQESAVLATAPRIDDEIPPPLPVRTPESFIVVEEAGEFSPNVPKSLSSAVKVKIGTSLEWGGTSEPKKFDDSVILRPSKSVKLRSPKSELHQDRSSPPPPLPERTLESFFLADEDCMQAQSIETYSTSYPDTMENSTSSKQTLKTPGKSFTRSKSLKILRNMKKSICNSCPPNKPAESVQSNNSSSFLNFGFANRFSKPKGPRNPPPTWNI
33P release from labelled Raytide, in vitro phosphatase assay with immunoprecipitates: a seven fold increase in ^33P release from the substrate incubated with Lyp immunoprecipitates compared to control immunoprecipitates
